The target in the test is GST-CGN(1–70) (GST-tagged cCGN, 1–70 amino acids) (canis (dog)). As to the kind of experiment: pull-down.
Chain of GST-CGN(1–70) (GST-tagged cCGN, 1–70 amino acids) (canis (dog)) (A7YH32 1-70): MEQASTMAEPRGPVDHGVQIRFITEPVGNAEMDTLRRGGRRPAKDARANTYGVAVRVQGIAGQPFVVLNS

In the case of “GFP-hZO-1-Cter (1619–1748) (from UniProt Q07157 1619-1748) (domain or fragment)”, the fold stronger binding than larger fragments was more than 4 fold.
